B2: DHR2 domain of human DOCK10 (DOCK10^DHR2, residues 1695-2151) (domain or fragment)
chain: TPELRRTWLESMAKIHARNGDLSEAAMCYIHIAALIAEYLKRKGYWKVEKICTASLLSEDTHPCDSNSLLTTPSGGSMFSMGWPAFLSITPNIKEEGAMKEDSGMQDTPYNENILVEQLYMCVEFLWKSERYELIADVNKPIIAVFEKQRDFKKLSDLYYDIHRSYLKVAEVVNSEKRLFGRYYRVAFYGQGFFEEEEGKEYIYKEPKLTGLSEISQRLLKLYADKFGADNVKIIQDSNKVNPKDLDPKYAYIQVTYVTPFFEEKEIEDRKTDFEMHHNINRFVFETPFTLSGKKHGGVAEQCKRRTILTTSHLFPYVKKRIQVISQSSTELNPIEVAIDEMSKKVSELNQLCTMEEVDMIRLQLKLQGSVSVKVNAGPMAYARAFLEETNAKKYPDNQVKLLKEIFRQFADACGQALDVNERLIKEDQLEYQEELRSHYKDMLSELSTVMNEQITG

The target in data set [1] is B2. Nature of the data set: crystal structure.
The target of data set [2] is B2. Nature of the data set: ITC.
Data set [3] concerns the molecule itself. Nature of the data set: crystal structure.

The results in this text go back to doi:10.1101/2022.06.15.496229 (bioRxiv, 2022).

B1: CDC42 (residues 1-191) (natural protein)
chain: not shown
Take B1: in data set [1], the “stoichiometry N” value was determined as 1 DOCK10^DHR2 per CDC42. In data set [2], the dH came out at 2.034 ± 0.0143 kcal/mol. Consider B2, for which the binding result in data set [3] was “binds”.

What is called stoichiometry N is the number of molecules, sites or subunits per partner or assembly.
